Assay results: article PMC4490372, “Architecture of TFIIIC and its role in RNA polymerase III pre-initiation complex assembly” (Nature Communications, 2015)

How the values were obtained:
[1] = target: T1, τ138 (Tfc3), τB subunit of endogenous S. cerevisiae TFIIIC (S. cerevisiae, UniProt P34111 1-1160); assay: cross-linking; XL-MS: purified endogenous TFIIIC (30 μg, 1 μg/μl) cross-linked with H12/D12 DSS to 2 mM, 40 min at 37 °C; ld-score >25; details: both partners purified
T1 construct: τ138 (Tfc3), subunit of S. cerevisiae TFIIIC, endogenous subunit in the purified complex; source: endogenous, purified from S. cerevisiae strain SC2342 as part of TFIIIC (TAP tag on τ60)
T1 sequence (looked up): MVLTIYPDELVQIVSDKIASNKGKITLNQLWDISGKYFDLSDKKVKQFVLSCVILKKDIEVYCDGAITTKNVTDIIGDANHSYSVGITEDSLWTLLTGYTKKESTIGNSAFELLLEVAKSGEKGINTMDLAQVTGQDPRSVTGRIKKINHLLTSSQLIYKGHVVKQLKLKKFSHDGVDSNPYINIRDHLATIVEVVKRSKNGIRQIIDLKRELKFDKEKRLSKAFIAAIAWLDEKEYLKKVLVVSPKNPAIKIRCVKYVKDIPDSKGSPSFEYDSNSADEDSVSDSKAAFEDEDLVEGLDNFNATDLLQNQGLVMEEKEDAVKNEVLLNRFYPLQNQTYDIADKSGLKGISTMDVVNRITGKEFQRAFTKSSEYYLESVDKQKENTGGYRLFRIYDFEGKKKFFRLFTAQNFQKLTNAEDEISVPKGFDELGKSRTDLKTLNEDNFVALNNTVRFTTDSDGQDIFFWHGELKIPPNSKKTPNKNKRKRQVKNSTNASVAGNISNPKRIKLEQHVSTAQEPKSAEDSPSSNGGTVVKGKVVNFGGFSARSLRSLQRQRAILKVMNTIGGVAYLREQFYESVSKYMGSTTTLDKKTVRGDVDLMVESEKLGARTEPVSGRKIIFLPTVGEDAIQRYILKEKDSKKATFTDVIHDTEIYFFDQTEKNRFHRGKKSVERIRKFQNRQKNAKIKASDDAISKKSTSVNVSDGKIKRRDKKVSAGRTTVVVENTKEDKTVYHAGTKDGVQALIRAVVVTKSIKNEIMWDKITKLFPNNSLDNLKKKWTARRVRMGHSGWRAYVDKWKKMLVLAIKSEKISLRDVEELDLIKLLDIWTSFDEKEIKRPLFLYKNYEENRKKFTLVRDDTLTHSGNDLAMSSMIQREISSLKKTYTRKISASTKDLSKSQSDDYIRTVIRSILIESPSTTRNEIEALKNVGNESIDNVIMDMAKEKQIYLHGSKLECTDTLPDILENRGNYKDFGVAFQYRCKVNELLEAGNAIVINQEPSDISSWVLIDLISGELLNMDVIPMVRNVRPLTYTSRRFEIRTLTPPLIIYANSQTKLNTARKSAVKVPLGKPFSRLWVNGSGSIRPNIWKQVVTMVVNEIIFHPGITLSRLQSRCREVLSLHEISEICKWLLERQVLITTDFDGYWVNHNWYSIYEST

[2] = target: T2, τ131 (Tfc4), τA subunit of endogenous S. cerevisiae TFIIIC (S. cerevisiae, UniProt P33339 1-1025); assay: as above; details: both partners purified
T2 construct: τ131 (Tfc4), subunit of S. cerevisiae TFIIIC, endogenous subunit in the purified complex; Endogenous subunit; source: endogenous, purified from S. cerevisiae strain SC2342 as part of TFIIIC (TAP tag on τ60)
T2 sequence (looked up): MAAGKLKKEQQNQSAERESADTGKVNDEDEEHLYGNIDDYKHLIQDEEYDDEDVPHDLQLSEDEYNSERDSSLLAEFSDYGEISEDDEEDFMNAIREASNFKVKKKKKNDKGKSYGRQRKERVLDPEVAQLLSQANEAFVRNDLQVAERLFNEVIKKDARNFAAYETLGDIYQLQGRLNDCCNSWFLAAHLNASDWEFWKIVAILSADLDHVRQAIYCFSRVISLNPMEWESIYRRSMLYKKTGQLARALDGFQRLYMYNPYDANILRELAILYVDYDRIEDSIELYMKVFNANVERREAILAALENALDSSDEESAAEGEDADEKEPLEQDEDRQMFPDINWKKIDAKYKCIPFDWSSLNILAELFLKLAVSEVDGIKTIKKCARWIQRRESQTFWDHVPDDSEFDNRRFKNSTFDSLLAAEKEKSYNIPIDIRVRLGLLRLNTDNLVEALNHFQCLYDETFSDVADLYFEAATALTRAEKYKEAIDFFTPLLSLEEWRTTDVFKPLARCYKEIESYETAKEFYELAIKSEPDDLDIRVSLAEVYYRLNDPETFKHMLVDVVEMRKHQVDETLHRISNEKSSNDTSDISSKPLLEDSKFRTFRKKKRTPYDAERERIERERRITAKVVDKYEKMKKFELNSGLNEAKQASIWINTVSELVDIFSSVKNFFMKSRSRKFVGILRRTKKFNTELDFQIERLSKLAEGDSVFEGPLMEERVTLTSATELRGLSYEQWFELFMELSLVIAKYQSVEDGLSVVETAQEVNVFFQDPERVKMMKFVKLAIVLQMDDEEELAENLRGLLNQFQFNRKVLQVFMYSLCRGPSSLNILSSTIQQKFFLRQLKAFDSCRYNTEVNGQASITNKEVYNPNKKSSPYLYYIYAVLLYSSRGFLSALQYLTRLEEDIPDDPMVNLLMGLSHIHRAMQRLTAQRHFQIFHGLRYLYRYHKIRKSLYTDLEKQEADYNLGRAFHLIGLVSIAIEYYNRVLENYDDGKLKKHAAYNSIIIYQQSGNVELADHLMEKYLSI

B1: τ95 (Tfc1), τA subunit of endogenous S. cerevisiae TFIIIC (natural protein, UniProt P32367 1-649, looked up)
chain: MPVEEPLATLSSIPDSSADQAPPLIADEFTLDLPRIPSLELPLNVSTKHSSIQKAIKMCGGIEKVKEAFKEHGPIESQHGLQLYLNDDTDSDGSKSYFNEHPVIGKRVPFRDESVILKVTMPKGTLSKNNNSVKDSIKSLKDSNKLRVTPVSIVDNTIKFREMSDFQIKLDNVPSAREFKSSFGSLEWNNFKSFVNSVPDNDSQPQENIGNLILDRSVKIPSTDFQLPPPPKLSMVGFPLLYKYKANPFAKKKKNGVTEVKGTYIKNYQLFVHDLSDKTVIPSQAHEQVLYDFEVAKKTKVYPGTKSDSKFYESLEECLKILRELFARRPIWVKRHLDGIVPKKIHHTMKIALALISYRFTMGPWRNTYIKFGIDPRSSVEYAQYQTEYFKIERKLLSSPIVKKNVPKPPPLVFESDTPGGIDSRFKFDGKRIPWYLMLQIDLLIGEPNIAEVFHNVEYLDKANELTGWFKELDLVKIRRIVKYELGCMVQGNYEYNKYKLKYFKTMLFVKESMVPENKNSEEGMGVNTNKDADGDINMDAGSQMSSNAIEEDKGIAAGDDFDDNGAITEEPDDAALENEEMDTDQNLKVPASIDDDVDDVDADEEEQESFDVKTASFQDIINKIAKLDPKTAETMKSELKGFVDEVDL
notes: τ95 (Tfc1), subunit of S. cerevisiae TFIIIC, endogenous subunit in the purified complex; source: endogenous, purified from S. cerevisiae strain SC2342 as part of TFIIIC (TAP tag on τ60)
binding result [1]: binds | binding result [2]: binds
